Test results from article PMC9484798.

Target: U6, a member of the malonate semialdehyde decarboxylase (MSAD)-like subgroup of the tautomerase superfamily
Experiment: native MS

Substance: U6, a member of the malonate semialdehyde decarboxylase (MSAD)-like subgroup of the tautomerase superfamily (enzyme)
- stoichiometry N: 3
